The results in this text go back to patent US20140301990A1.

Common to all, as to test: cell_activity
Data set [1] relates to TALEN 101540 (engineered). The conditions noted are these: pair with 101536, K562; 9.6 with 101537.
For data set [2], the system named is TALEN 101539 (engineered). The conditions noted are these: pair with 101536, K562; 0.0 with 101537.
In data set [3] the test system is TALEN 101537 (engineered). Conditions: pair with 101541, K562; 9.6 with 101540, 0.0 with 101539.
The test system of data set [4] is TALEN 101513 (engineered). Conditions: pair with 101516, K562; 5.9 with 101514, 8.3 with 101515.
Data set [5] concerns TALEN 101511 (engineered). The conditions noted are these: pair with 101515, K562; 3.4 with 101514, 5.3 with 101516.
Data set [6] concerns TALEN 101512 (engineered). The conditions noted are these: pair with 101516, K562; 5.3 with 101514, 8.9 with 101515.
For data set [7], the system named is TALEN 101516 (engineered). The conditions noted are these: pair with 101513, K562.
Data set [8] has as its system TALEN 101515 (engineered). Conditions: pair with 101512, K562.
Data set [9] relates to ZFN 22409 (TRBC) (engineered). Conditions: pair with 16783, K562 day 10.
Data set [10] deals with ZFN 22454 (TRBC) (engineered). Conditions: pair with 16783, K562 day 3; 12.1 day 10.
Data set [11] has as its system ZFN 16787 (TRBC) (engineered). Conditions: pair with 16783, K562 day 3; 15.6 day 10; Table 6 8.73 TRBC1, 8.68 TRBC2.
The subject of data set [12] is ZFN 22449 (TRBC) (engineered). The conditions noted are these: pair with 16783, K562 day 3; 8.1 day 10.
In data set [13] the test system is TALEN 101536 (engineered). The conditions noted are these: pair with 101541, K562; 8.5 with 101539, 9.9 with 101540.
In data set [14] the test system is TALEN 101514 (engineered). The conditions noted are these: pair with 101513, K562.

Consider “CTGGGTCCACTCGTCATTC (double strand) [101540 site]”, for which the activity in data set [1] was found to be 9.9 % NHEJ.

“CTGGGTCCACTCGTCATTCT (double strand) [101539 site]” returned an activity in data set [2] of 8.5 % NHEJ.

As to “CTGTCAAGTCCAGTTCTA (double strand) [101537 site]”, in [3], the activity stood at 9.9 % NHEJ.

In [4], “CTGTGGCCTGGAGCAACAA (double strand) [101513 site]” yielded an activity of 16.4 % NHEJ.

Sequence “GTGCTGTGGCCTGGAGCAA (double strand) [101511 site]” yielded an activity in data set [5] of 5.9 % NHEJ.

“GTGCTGTGGCCTGGAGCAAC (double strand) [101512 site]”: in data set [6], the activity came to 12 % NHEJ.

In [7], “GTTGAAGGCGTTTGCACATG (double strand) [101516 site]” registered an activity of 16.4 % NHEJ.

Take “GTTGAAGGCGTTTGCACATGC (double strand) [101515 site]”: the activity in [8] came to 8.9 % NHEJ.

For the sequence “TCTCGGAGAATGACGAGTGGACCCAGGA (double strand) [TRBC 16787 site]”, the activity in data set [9] was 14.7 % NHEJ; in data set [10] it was 17.7 % NHEJ; in [11] it was 12.1 % NHEJ; in data set [12] it was 20.1 % NHEJ.

Regarding “TTCCGCTGTCAAGTCCAGTTC (double strand) [101536 site]”, the activity in [13] amounted to 15 % NHEJ.

In [14], “TTGAAGGCGTTTGCACATGCA (double strand) [101514 site]” displayed an activity of 5.9 % NHEJ.
